In US20130058934A1 one finds EC50 and IC50 by STF assay for Wnt1 inhibition data, which are given here for seven molecules.

B1: MOR06706 Fab (Fab, V domains shown)
VH: QVQLVESGGGLVQPGGSLRLSCAASGFTFSDYAIHWVRQAPGKGLEWVSGISYSGSSTHYADSVKGRFTISRDNSKNTLYLQMNSLRAEDTAVYYCARGSHGNIMAKRYFDFWGQGTLVTVSS
VL: DIELTQPPSVSVAPGQTARISCSGDNIRKKYVYWYQQKPGQAPVLVIYEDSKRPSGIPERFSGSNSGNTATLTISGTQAEDEADYYCSTADSGINNGVFGGGTKLTVL
B2: MOR08545 Fab (Fab, V domains shown)
VH: QVQLVESGGGLVQPGGSLRLSCAASGFTFSVNGMHWVRQAPGKGLEWVSVIDGMGHTYYADSVKGRFTISRDNSKNTLYLQMNSLRAEDTAVYYCARYDYIKYGAFDPWGQGTLVTVSS
VL: DIELTQPPSVSVAPGQTARISCSGDNIGSKYVHWYQQKPGQAPVLVIYGDSNRPSGIPERFSGSNSGNTATLTISGTQAEDEADYYCTRTSTPISGVFGGGTKLTVLG
B3: MOR08168 Fab (Fab, V domains shown)
VH: QVQLVESGGGLVQPGGSLRLSCAASGFTFSDYVINWVRQAPGKGLEWVSGISWSGVNTHYADSVKGRFTISRDNSKNTLYLQMNSLRAEDTAVYYCARLGATANNIRYKFMDVWGQGTLVTVSS
VL: DIELTQPPSVSVAPGQTARISCSGDSLRNKVYWYQQKPGQAPVLVIYKNNRPSGIPERFSGSNSGNTATLTISGTQAEDEADYYCQSYDGQKSLVFGGGTKLTVL
B4: MOR06475 Fab (Fab, V domains shown)
VH: QVQLKESGPALVKPTQTLTLTCTFSGFSLSNRGGGVGWIRQPPGKALEWLAWIDWDDDKSYSTSLKTRLTISKDTSKNQVVLTMTNMDPVDTATYYCARMHLPLVFDSWGQGTLVTVSS
VL: DIVLTQSPATLSLSPGERATLSCRASQFIGSRYLAWYQQKPGQAPRLLIYGASNRATGVPARFSGSGSGTDFTLTISSLEPEDFATYYCQQYYDYPQTFGQGTKVEIK
B5: scFv08168-D7 (scFv, part only; not given: Linker and His tag, V domains shown, not shown: another chain or arm of the molecule; small tags and cut ends)
VH: QVQLVESGGGLVQPGGSLRLSCAASGFTFSDYVMNWVRQAPGKGLEWVSGISWSGVNTHYADSVKGRFTISRDNSKNTLYLQMNSLRAEDTAVYYCARLGATANNIRYKFMDVWGQGTLVTVSS
VL: DIELTQPPSVSVAPGQTARITCSGDSLRNKVYWYQQKPGQAPVLVIYKNNRPSGIPERFSGSNSGNTATLTISGTQAEDEADYYCQSYDGQKSLVFGGGTKLTVL
B6: scFv08168-D9 (scFv, part only; not given: Linker and His tag, V domains shown, not shown: another chain or arm of the molecule; small tags and cut ends)
VH: QVQLVESGGGLVQPGGSLRLSCAASGFTFSDYVMNWVRQAPGKGLEWVSGISWSGVNTHYADSVKGRFTISRDNSKNTLYLQMNSLRAEDTAVYYCARLGATANNIRYKFMDVWGQGTLVTVSS
VL: DIELTQPPSVSVAPGQTARISCSGDSLRNKVYWYQQKPGQAPVLVIYKNNRPSGIPERFSVSNSGNTATLTISGTQAEDEADYYCQSYDGQKSLVFGGGTKLTVL
B7: scFv08168-D6 (scFv, part only; not given: Linker and His tag, V domains shown, not shown: another chain or arm of the molecule; small tags and cut ends)
VH: QVQLVESGGGLVQPGGSLRLSCAASGFTFSDYVMNWVRQAPGKGLEWISGISWSGVNTHYADSVKGRFTISRDNSKNTLYLQMNSLRAEDTAVYYCARLGATANNIRYKFMDVWGQGTLVTVSS
VL: DIELTQPPSVSVAPGQTARISCSGDSLRNKVYWYQQKPGQAPVLVIYKNNRPSGIPERFSGSNSGNTATLTISGTQAEDEADYYCQSYDGQKSLVFGGGTKLTVL

Sequence of human LRP6 (human) (O75581 20-1613): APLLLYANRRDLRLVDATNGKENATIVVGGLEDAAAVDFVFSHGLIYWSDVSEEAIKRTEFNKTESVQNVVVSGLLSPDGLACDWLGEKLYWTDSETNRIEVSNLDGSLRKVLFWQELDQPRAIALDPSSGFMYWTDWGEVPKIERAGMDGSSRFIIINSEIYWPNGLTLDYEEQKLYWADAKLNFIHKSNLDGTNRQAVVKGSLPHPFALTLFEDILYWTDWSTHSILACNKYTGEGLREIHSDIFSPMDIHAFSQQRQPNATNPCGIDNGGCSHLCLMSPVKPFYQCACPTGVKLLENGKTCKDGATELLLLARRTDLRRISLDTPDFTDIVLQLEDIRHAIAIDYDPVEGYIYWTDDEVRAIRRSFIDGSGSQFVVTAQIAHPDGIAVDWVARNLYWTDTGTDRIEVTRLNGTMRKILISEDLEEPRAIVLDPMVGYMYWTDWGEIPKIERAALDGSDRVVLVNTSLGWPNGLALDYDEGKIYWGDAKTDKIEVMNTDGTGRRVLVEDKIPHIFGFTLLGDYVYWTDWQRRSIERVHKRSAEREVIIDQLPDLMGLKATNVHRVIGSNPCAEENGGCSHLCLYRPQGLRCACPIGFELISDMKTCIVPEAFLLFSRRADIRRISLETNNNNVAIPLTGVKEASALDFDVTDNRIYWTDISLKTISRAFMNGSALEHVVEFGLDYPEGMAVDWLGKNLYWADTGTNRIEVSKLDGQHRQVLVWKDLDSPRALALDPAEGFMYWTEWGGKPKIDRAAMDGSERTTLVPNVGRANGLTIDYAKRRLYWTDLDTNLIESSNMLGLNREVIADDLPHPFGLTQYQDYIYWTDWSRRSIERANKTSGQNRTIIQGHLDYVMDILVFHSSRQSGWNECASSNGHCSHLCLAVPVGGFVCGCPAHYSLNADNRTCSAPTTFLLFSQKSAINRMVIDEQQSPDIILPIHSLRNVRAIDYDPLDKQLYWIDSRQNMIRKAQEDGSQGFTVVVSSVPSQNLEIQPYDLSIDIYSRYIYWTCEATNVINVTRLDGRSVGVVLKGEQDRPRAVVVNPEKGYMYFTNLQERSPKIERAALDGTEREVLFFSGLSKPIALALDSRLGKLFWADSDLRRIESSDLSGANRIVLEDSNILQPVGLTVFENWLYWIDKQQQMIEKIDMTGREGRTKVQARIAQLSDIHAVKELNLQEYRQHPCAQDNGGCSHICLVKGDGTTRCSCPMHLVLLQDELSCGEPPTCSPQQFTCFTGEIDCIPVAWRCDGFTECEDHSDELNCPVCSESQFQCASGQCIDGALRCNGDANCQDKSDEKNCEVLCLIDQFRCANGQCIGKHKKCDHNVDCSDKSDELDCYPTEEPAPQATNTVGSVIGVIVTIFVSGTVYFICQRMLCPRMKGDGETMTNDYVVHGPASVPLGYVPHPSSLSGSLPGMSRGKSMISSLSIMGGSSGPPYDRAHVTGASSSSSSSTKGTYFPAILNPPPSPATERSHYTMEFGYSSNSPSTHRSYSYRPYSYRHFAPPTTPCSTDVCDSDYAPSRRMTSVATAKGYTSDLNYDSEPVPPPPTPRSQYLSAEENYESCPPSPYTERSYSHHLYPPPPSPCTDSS

One test concerns the target cynomolgus LRP6 (cynomolgus). In words: FACS on HEK293T/17 cells transiently transfected with cynomolgus LRP6.
For orientation: EC50 means the concentration needed to bring the measured effect to its halfway point. Low readings indicate greater potency, high ones weaker potency. With B1, the concentration giving a half-maximal response (EC50) stood at 0.46 nM.

In turn, B2 had an EC50 of 0.3 nM. Compared with the last molecule, the EC50 is about 1.5-fold lower.

Consider B3, for which the concentration for a half-maximal effect (EC50) came out at 0.88 nM. Against the preceding molecule, the EC50 is about 2.9-fold higher.

B4 yielded an EC50 of 0.22 nM.

Another test addresses human LRP6 (human) (UniProt O75581).
Test: not given
B5 gave an IC50 by STF assay for Wnt1 inhibition of 4.81 nM.

B6 displayed an IC50 by STF assay for Wnt1 inhibition of 11.1 nM.

B7 returned an IC50 by STF assay for Wnt1 inhibition of 0.74 nM.
